In paper PMC3708604 (Methods in molecular biology (Clifton, N.J.), 2013):

B1: Full-length FLAG-epitope-tagged human ERα (receptor, UniProt P03372 1-595, looked up)
chain: MTMTLHTKASGMALLHQIQGNELEPLNRPQLKIPLERPLGEVYLDSSKPAVYNYPEGAAYEFNAAAAANAQVYGQTGLPYGPGSEAAAFGSNGLGGFPPLNSVSPSPLMLLHPPPQLSPFLQPHGQQVPYYLENEPSGYTVREAGPPAFYRPNSDNRRQGGRERLASTNDKGSMAMESAKETRYCAVCNDYASGYHYGVWSCEGCKAFFKRSIQGHNDYMCPATNQCTIDKNRRKSCQACRLRKCYEVGMMKGGIRKDRRGGRMLKHKRQRDDGEGRGEVGSAGDMRAANLWPSPLMIKRSKKNSLALSLTADQMVSALLDAEPPILYSEYDPTRPFSEASMMGLLTNLADRELVHMINWAKRVPGFVDLTLHDQVHLLECAWLEILMIGLVWRSMEHPGKLLFAPNLLLDRNQGKCVEGMVEIFDMLLATSSRFRMMNLQGEEFVCLKSIILLNSGVYTFLSSTLKSLEEKDHIHRVLDKITDTLIHLMAKAGLTLQQQHQRLAQLLLILSHIRHMSNKGMEHLYSMKCKNVVPLYDLLLEMLDAHRLHAPTSRGGASVEETDQSHLATAGSTSSHSLQKYYITGEAEGFPATV

What was measured:
[1] = target: Full-length FLAG-epitope-tagged human SRC1a (human, UniProt Q15788-1 1-1441); assay: fluorescence polarisation
[2] = target: B1; assay: fluorescence polarisation

Chain of Full-length FLAG-epitope-tagged human SRC1a (Q15788 whole entry): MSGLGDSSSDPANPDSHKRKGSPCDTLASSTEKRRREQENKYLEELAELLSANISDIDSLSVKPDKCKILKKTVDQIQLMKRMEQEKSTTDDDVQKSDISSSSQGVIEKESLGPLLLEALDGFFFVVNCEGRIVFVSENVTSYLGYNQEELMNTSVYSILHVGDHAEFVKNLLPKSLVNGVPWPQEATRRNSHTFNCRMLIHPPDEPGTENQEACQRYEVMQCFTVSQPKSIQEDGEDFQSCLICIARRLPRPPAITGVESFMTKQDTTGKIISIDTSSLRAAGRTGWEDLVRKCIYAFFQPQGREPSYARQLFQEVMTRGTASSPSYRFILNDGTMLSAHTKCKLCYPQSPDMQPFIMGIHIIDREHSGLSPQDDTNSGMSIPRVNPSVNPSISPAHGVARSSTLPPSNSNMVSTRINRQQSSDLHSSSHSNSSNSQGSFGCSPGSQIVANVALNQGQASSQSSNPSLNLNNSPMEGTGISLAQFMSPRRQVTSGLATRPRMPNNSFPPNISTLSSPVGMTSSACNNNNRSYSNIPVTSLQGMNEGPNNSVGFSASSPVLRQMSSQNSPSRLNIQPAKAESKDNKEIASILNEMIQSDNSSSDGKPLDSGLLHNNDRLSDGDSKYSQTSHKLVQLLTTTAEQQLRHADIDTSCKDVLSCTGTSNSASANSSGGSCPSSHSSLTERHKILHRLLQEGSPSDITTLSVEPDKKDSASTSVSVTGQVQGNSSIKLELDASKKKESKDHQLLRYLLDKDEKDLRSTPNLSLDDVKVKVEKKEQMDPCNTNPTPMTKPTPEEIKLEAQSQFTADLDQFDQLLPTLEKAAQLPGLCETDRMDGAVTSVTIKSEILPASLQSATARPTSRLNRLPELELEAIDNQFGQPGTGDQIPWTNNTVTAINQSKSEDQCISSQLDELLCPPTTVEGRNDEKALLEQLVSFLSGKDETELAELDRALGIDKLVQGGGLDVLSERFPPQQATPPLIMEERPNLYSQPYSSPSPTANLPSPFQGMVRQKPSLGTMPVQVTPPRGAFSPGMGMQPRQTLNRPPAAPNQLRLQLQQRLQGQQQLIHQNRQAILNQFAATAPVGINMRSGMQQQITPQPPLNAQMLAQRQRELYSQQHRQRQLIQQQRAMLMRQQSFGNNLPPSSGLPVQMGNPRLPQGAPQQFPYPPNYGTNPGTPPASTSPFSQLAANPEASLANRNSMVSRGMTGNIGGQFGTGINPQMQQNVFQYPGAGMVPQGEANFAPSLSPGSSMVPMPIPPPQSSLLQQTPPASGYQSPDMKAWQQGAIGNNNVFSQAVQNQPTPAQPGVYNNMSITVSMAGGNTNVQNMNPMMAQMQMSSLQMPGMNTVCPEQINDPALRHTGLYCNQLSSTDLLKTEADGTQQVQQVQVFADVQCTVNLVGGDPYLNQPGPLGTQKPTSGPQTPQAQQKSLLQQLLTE

| Binder | Kd [1] [nM] | IC50 [2] [nM] |
| --- | --- | --- |
| B1 | ~14 |  |
| FLAG-epitope-tagged human ERβ (receptor, UniProt Q92731 1-530, looked up) MDIKNSPSSLNSPSSYNCSQSILPLEHGSIYIPSSYVDSHHEYPAMTFYSPAVMNYSIPSNVTNLEGGPGRQTTSPNVLWPTPGHLSPLVVHRQLSHLYAEPQKSPWCEARSLEHTLPVNRETLKRKVSGNRCASPVTGPGSKRDAHFCAVCSDYASGYHYGVWSCEGCKAFFKRSIQGHNDYICPATNQCTIDKNRRKSCQACRLRKCYEVGMVKCGSRRERCGYRLVRRQRSADEQLHCAGKAKRSGGHAPRVRELLLDALSPEQLVLTLLEAEPPHVLISRPSAPFTEASMMMSLTKLADKELVHMISWAKKIPGFVELSLFDQVRLLESCWMEVLMMGLMWRSIDHPGKLIFAPDLVLDRDEGKCVEGILEIFDMLLATTSRFRELKLQHKEYLCVKAMILLNSSMYPLVTATQDADSSRKLAHLLNAVTDALVWVIAKSGISSQQQSMRLANLLMLLSHVRHASNKGMEHLLNMKCKNVVPVYDLLLEMLNAHVLRGCKSSITGSECSPAEDSKSKEGSQNPQSQ | ~6 |  |
| LTERHKILHRLLQE [SRC1 NR Box 2 peptide] |  | ~1000 |
| QAQQKSLLQQLLTE [SRC1 NR Box 4 peptide] |  | ~3800 |
